Test results reported in article PMC5854669, “Zinc knuckle of TAF1 is a DNA binding module critical for TFIID promoter occupancy”.
Positions count from the first letter of the chain named.

T1: TAF1 ZnA (Homo sapiens, UniProt P21675 1234-1371)
T1 sequence: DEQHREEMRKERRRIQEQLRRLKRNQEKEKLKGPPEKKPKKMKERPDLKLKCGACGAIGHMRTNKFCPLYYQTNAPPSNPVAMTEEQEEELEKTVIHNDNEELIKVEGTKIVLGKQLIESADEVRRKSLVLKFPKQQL

T2: TAF1 ZnD (Homo sapiens, UniProt P21675 1256-1303)
T2 chain: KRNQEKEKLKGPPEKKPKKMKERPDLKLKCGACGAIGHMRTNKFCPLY

T3: TAF1 ZnC (Homo sapiens, UniProt P21675 1234-1303)
T3 sequence: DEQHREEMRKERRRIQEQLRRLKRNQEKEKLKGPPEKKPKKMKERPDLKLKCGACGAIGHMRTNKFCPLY

T4: TAF1 ZnD cysteine mutant (Homo sapiens, UniProt P21675 1256-1303, C1285A;C1288A)
T4 chain: T2 chain with C30A, C33A

T5: TAF1 ZnD charge mutant (Homo sapiens, UniProt P21675 1256-1303, R1295A;K1298A)
T5 chain: T2 chain with R40A, K43A

T6: TAF1 ZnC cysteine mutant (Homo sapiens, UniProt P21675 1234-1303, C1285A;C1288A)
T6 sequence: T3 sequence with C52A, C55A

B1: CD1P (cyclin D1 core promoter) (dsDNA)
DNA 1: AGGGGAGTTTTGTTGAAGTTGCAAAGTCCTGGAGCCTCCAGAGGGCTGTCG
DNA 2: CGACAGCCCTCTGGAGGCTCCAGGACTTTGCAACTTCAACAAAACTCCCCT
B2: IMD (Inr, MTE, DPE of super core promoter) (dsDNA)
DNA 1: GTCCTCAGTCGCGATCGAACACTCGAGCCGAGCAGACGTGCCTA
DNA 2: TAGGCACGTCTGCTCGGCTCGAGTGTTCGATCGCGACTGAGGAC
B3: Random DNA (dsDNA)
DNA 1: GAATGTCGCGAAGGCAGCGTTCGCGAAGACAGCAAAGAAG
DNA 2: CTTCTTTGCTGTCTTCGCGAACGCTGCCTTCGCGACATTC

What was measured:
TAF1 ZnA = biological target: T1, TAF1 ZnA; experiment: BLI; 0.2 mM dI:dC, 5 mM Mg2+; BLI: 10 mM HEPES pH 7.9, 5 mM MgCl2, 100 mM NaCl, 10% glycerol, 0.1% ovalbumin, 0.2 mM dI:dC, 30 °C; EMSA: 10 mM HEPES pH 7.9, 5 mM MgCl2, 100 mM NaCl, 10% glycerol, 20 mM tetrasodium pyrophosphate (so in the source), 0.2 mM dI:dC, 25 °C; conditions: protein: recombinant; EMSA/proteolysis: tag removed by TEV; label: 5'-biotin (BLI); 5'-32P (EMSA); blunt
TAF1 ZnD = biological target: T2, TAF1 ZnD; experiment: as above; conditions: protein: recombinant; tags: His-GB1; label: 5'-biotin (BLI); 5'-32P (EMSA); blunt
TAF1 ZnC = biological target: T3, TAF1 ZnC; experiment: as above; conditions: protein: recombinant; tags: His-GB1; label: 5'-biotin (BLI); 5'-32P (EMSA); blunt
TAF1 ZnD cysteine mutant = biological target: T4, TAF1 ZnD cysteine mutant; experiment: BLI; BLI: 10 mM HEPES pH 7.9, 5 mM MgCl2, 100 mM NaCl, 10% glycerol, 0.1% ovalbumin, 0.2 mM dI:dC, 30 °C; EMSA: 10 mM HEPES pH 7.9, 5 mM MgCl2, 100 mM NaCl, 10% glycerol, 20 mM tetrasodium pyrophosphate (so in the source), 0.2 mM dI:dC, 25 °C; conditions: protein: recombinant; tags: His-GB1; label: 5'-biotin (BLI); 5'-32P (EMSA); blunt
TAF1 ZnD charge mutant = biological target: T5, TAF1 ZnD charge mutant; experiment: as above; conditions: protein: recombinant; tags: His-GB1; label: 5'-biotin (BLI); 5'-32P (EMSA); blunt
TAF1 ZnC cysteine mutant = biological target: T6, TAF1 ZnC cysteine mutant; experiment: as above; conditions: protein: recombinant; tags: His-GB1; label: 5'-biotin (BLI); 5'-32P (EMSA); blunt

Row | Binder | Kd (TAF1 ZnA) | Kd (TAF1 ZnD) | Kd (TAF1 ZnC) | binding result (TAF1 ZnD cysteine mutant) | binding result (TAF1 ZnD charge mutant) | binding result (TAF1 ZnC cysteine mutant)
1 | B1 | 411 ± 101 nM |  |  |  |  | 
2 | B2 | 288 ± 46 nM | 503 ± 67 nM | 343 ± 42 nM | no binding | no binding | no binding
3 | B3 | 1010 ± 228 nM |  |  |  |  | 
